Assay results from patent US20170022281A1 (AbbVie / Abbott, published 2017).

T1: human PRLR (Biacore antigen) (human, UniProt P16471 25-234, limits assumed)
T1 construct: The construct injected over captured antibody is not described (a soluble form is likely); also called huPRLR
T1 sequence: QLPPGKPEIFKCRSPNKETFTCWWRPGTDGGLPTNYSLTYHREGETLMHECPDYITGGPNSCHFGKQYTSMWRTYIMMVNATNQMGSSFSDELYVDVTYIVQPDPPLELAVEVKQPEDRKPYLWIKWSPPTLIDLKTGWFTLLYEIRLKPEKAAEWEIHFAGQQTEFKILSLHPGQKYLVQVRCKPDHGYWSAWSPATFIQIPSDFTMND

T2: murine PRLR (Biacore antigen) (murine, UniProt Q08501 20-229, limits assumed)
T2 construct: also called muPRLR
T2 sequence (looked up): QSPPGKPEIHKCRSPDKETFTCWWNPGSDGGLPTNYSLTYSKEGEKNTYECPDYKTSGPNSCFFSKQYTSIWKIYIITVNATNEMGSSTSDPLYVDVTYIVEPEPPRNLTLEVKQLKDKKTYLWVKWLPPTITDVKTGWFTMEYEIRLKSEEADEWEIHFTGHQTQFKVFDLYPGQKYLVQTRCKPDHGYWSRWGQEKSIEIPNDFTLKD

T3: cyno PRLR (Biacore antigen) (cyno, UniProt A0A2K5WXK1 25-234)
T3 construct: also called cyPRLR
T3 sequence: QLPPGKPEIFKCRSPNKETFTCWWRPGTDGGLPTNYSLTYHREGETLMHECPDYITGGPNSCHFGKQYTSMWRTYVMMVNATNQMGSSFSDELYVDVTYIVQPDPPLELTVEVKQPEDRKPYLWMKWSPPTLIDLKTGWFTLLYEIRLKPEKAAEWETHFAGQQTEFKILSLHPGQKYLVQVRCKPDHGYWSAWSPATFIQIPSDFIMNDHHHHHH

T4: mouse PRLR on Baf3-mPRLR cells (mouse, UniProt Q08501 20-608)
T4 sequence (looked up): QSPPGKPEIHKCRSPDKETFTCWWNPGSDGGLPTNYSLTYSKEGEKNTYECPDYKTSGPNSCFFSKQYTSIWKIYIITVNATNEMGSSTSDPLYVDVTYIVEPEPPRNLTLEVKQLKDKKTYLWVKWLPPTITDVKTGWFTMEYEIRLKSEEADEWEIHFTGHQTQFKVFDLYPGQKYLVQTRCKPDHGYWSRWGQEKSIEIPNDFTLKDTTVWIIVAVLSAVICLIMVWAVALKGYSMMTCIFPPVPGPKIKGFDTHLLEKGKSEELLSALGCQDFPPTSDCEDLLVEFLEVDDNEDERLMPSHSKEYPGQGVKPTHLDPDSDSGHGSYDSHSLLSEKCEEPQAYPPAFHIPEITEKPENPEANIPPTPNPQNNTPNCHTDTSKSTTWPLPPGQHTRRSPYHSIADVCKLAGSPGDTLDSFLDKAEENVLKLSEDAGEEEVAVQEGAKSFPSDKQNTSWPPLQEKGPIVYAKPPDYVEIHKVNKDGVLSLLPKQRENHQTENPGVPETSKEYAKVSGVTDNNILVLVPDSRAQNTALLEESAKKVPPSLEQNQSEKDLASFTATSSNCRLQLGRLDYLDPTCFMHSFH


Columns and labels:
[1] = target: T1, human PRLR (Biacore antigen); assay: SPR simultaneous binding; PRLR held by surface mAb Ab39
Protocol: (§1) Running buffer was HBS-EP+ (10 mM Hepes, pH7.4, 150 mM NaCl, 3 mM EDTA, 0.05% surfactant). Assay was performed at 12° C. using Biacore T200 and CM5 sensor chips with anti-human IgG (Pierce) amine-coupled in all 4 flow cells to ˜2000 RU.
(§2) Separate test mAbs were captured in flowcells 2, 3 & 4 (flowcell 1 was reference, no test mAb). All 4 flowcells were then blocked by injection with isotype control mAb at 50 ug/ml. All 4 flowcells were then injected with antigen or buffer only (buffer only is for double referencing, done for each mAb pair individually). All 4 flowcells were then injected with 2nd test mAb at 10 ug/ml. All 4 flowcells were then regenerated with glycine, pH1.5.

[2] = target: T1, human PRLR (Biacore antigen); assay: SPR simultaneous binding; PRLR held by surface mAb chAb6
Protocol: as §1, §2

[3] = target: T1, human PRLR (Biacore antigen); assay: SPR simultaneous binding; PRLR held by surface mAb Ab19
Protocol: as §1, §2

[4] = target: T1, human PRLR (Biacore antigen); assay: SPR simultaneous binding; PRLR held by surface mAb Ab21
Protocol: as §1, §2

[5] = target: T1, human PRLR (Biacore antigen); assay: SPR simultaneous binding; PRLR held by surface mAb chAb7
Protocol: as §1, §2

[6] = target: cyno PRLR on Baf3-cyPRLR cells (cyno); assay: cell-based or functional assay
[7] = target: T1, human PRLR (Biacore antigen); assay: SPR simultaneous binding; PRLR held by surface mAb chAb5
Protocol: as §1, §2

[8] = target: T2, murine PRLR (Biacore antigen); assay: SPR Biacore
Outline: (§3)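 Association rate, dissociation rate and dissociation constant were measured by surface plasmon resonance on a Biacore instrument. PRLR antigen was tested at 600 nM, 66.67 nM and 7.41 nM, a 3-point, 9-fold dilution series. Constants came from a 1:1 binding model fit (local Rmax, mass-transport term included) in Biacore T200 Evaluation Software.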

[9] = target: T3, cyno PRLR (Biacore antigen); assay: SPR Biacore
Outline: as §3

[10] = target: T1, human PRLR (Biacore antigen); assay: SPR Biacore
Outline: as §3

[11] = target: T1, human PRLR (Biacore antigen); assay: SPR simultaneous binding; PRLR held by surface mAb Ab49
Protocol: as §1, §2

[12] = target: T4, mouse PRLR on Baf3-mPRLR cells; assay: cell-based or functional assay

Binder	solution mAb binding, % of PRLR binding [1]	solution mAb binding, % of PRLR binding [2]	solution mAb binding, % of PRLR binding [3]	solution mAb binding, % of PRLR binding [4]	solution mAb binding, % of PRLR binding [5]	Baf3-cyPRLR proliferation IC50 [6]	solution mAb binding, % of PRLR binding [7]	Kd [8]	koff [8]	kon [8]	Kd [9]	koff [9]	kon [9]	Kd [10]	koff [10]	kon [10]	solution mAb binding, % of PRLR binding [11]	Baf3-mPRLR proliferation IC50 [12]
Ab30 (antibody, human IgG1, kappa, V domains shown, humanized from Ab5; G1; also called Ab2 HC.1a and Ab2 LC.1a) VH: EVQLVQSGAEVKKPGSSVKVSCKASGYTFTSFWMHWVRQAPGQGLEWIGVIDPSDTYTNYNQKFKGRATLTVDESSSTAYMELSSLRSEDTAVYYCARGDYSNWFTYWGQGTLVTVSS VL: DVVMTQTPLSLSVTPGQPASISCRSSQRLVHSNGNTYLHWYLQKPGQSPQLLIYKVSNRFSGVPDRFSGSGSGTDFTLKISRVEAEDVGVYFCSQSTHVPWTFGGGTKVEIKR	-2%	-1%	-1%	-1%	0%	0.24 µg/mL	0%	40 nM	0.0056 s⁻¹	140000 M⁻¹ s⁻¹	1.59 nM	0.000523 s⁻¹	330000 M⁻¹ s⁻¹	1.29 nM	0.000437 s⁻¹	339000 M⁻¹ s⁻¹	6%	–
Ab21 (antibody, human IgG1, kappa, V domains shown, humanized from Ab6; G1; also called Ab1 HC.1a and Ab1 LC.2a) VH: EVQLVQSGAEVKKPGSSVKVSCKASGYTFTTYWMHWVRQAPGQGLEWIGEIDPSDSYSNYNQKFKDRATLTVDKSTSTAYMELSSLRSEDTAVYYCARNGGLGPAWFSYWGQGTLVTVSS VL: EIVMTQSPATLSVSPGERATLSCKASQYVGTAVAWYQQKPGQSPRLLIYSASNRYTGVPARFSDSGSGTEFTLTISSLQSEDFAVYFCQQYSSYPWTFGGGTKVEIKR	-2%	-1%	-1%	-1%	0%	0.15 µg/mL	-1%	–	–	–	–	–	–	0.554 nM	0.000586 s⁻¹	1.06e+06 M⁻¹ s⁻¹	0%	> 30 µg/mL
Ab49 (antibody, human IgG1, kappa, V domains shown, humanized from Ab8; G1; also called Ab3 HC.1a and Ab3 LC.1b) VH: EVQLVQSGAEVKKPGASVKVSCKASGYTFTDYNIHWVRQAPGQGLEWIGYIYPNNDGTGYNQKFKSRATLTVDNSTSTAYMELRSLRSDDTAVYYCARGDGNYVGDMDYWGQGTTVTVSS VL: DIQMTQSPSSLSASVGDRVTITCRASENIYSYLAWYQQKPGKAPKLLVYNAKTLAEGVPSRFSGSGSGTDFTLTISSLQPEDFATYYCQHHYATPFTFGQGTKLEIKR	-2%	-2%	-1%	-1%	0%	3.49 µg/mL	0%	–	–	–	–	–	–	0.214 nM	0.00012 s⁻¹	558000 M⁻¹ s⁻¹	-1%	> 30 µg/mL
chAb6 (antibody, human IgG1, kappa, V domains shown, chimeric, murine variable and human G1/kappa constant regions) VH: QVQLQQPGAELVMPGSSVKLSCKASGYTFTTYWMHWVKQRPGQGLEWIGEIDPSDSYSNYNQKFKDKATLTVDKSSSTAYMQLSSLTSEDSAVYYCARNGGLGPAWFSYWGQGTLVTVSA VL: DIVMTQSQKFMSTTVGDRVSITCKASQYVGTAVAWYQQKPGQSPKLLIYSASNRYTGVPDRFTDSGSGTDFTLTISNLQSEDLADYFCQQYSSYPWTFGGGTKLEIKT	-2%	-1%	-1%	-1%	1%	12.2 µg/mL	0%	608 nM	0.36 s⁻¹	591000 M⁻¹ s⁻¹	0.794 nM	0.00103 s⁻¹	1.3e+06 M⁻¹ s⁻¹	0.469 nM	0.000536 s⁻¹	1.14e+06 M⁻¹ s⁻¹	0%	–
chAb8 (antibody, human IgG1, kappa, V domains shown, chimeric, murine variable and human G1/kappa constant regions) VH: EVQLQQSGPELVKPGASVKISCKASGYTFTDYNIHWVKQSHGKSLEWIGYIYPNNDGTGYNQKFKSKATLTVDNSSSTAYMEVRSLTSEDSAVYYCARGDGNYVGDMDYWGQGTSVTVSS VL: DIQMTQSPASLSASVGETVTITCRASENIYSYLAWYQQKQGKPPQLLVYNAKTLAEGVPSRFSGGGSGTQFSLKINSLQPEDFGSYYCQHHYATPFTFGSGTKLEIKT	-2%	-1%	-1%	-1%	0%	2.94 µg/mL	0%	291 nM	0.0538 s⁻¹	185000 M⁻¹ s⁻¹	3.44 nM	0.00177 s⁻¹	514000 M⁻¹ s⁻¹	0.183 nM	9.1e-05 s⁻¹	496000 M⁻¹ s⁻¹	-1%	–
